Test results taken from US20250011363A1, “OPTIMIZED SHORTENED PEPTIDE THAT BINDS TO ACETYLCHOLINE RECEPTOR, AND USE THEREOF” (SKINMED CO., LTD., priority 2021, published 2025).

What follows are substances tested against acetylcholine receptor (Homo sapiens, UniProt P02708) (assay: SPR binding affinity (RU) of optimized 5mer/6mer/7mer peptides, Examples 6-7). Settings: 6mer-1 Top sequence; SPR; peptides tested at 10 μM.
Procedure, shortened: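 600 peptides per series (5mer, 6mer-1, 6mer-2), made from high- or low-frequency amino acid combinations, are screened by SPR at 10 μM; binding is recorded in RU.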

acetylcholine receptor, sequence (P02708 21-457): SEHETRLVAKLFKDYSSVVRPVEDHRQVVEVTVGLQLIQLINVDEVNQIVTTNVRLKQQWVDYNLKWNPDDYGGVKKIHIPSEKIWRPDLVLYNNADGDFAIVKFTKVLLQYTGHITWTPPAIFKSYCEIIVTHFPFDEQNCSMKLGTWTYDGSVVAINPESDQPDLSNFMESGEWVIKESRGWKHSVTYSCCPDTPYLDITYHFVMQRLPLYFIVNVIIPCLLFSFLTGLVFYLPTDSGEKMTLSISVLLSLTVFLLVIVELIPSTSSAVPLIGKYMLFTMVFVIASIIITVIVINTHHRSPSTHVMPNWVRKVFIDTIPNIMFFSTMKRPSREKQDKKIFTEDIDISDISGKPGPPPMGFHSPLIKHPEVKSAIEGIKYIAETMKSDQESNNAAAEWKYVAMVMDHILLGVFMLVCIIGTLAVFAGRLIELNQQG

Substance	Binding affinity [Ru]
6mer-1-300 (RRWQQK)	148
6mer-1-276 (RRVICK)	128
6mer-1-349 (KRLYSK)	123
6mer-1-204 (KKRQRR)	154
6mer-1-351 (RRGLRK)	141
6mer-1-342 (RKRFCR)	131
6mer-1-218 (KKQVTR)	126
6mer-1-394 (KKVRRR)	149
6mer-1-224 (KRGFLR)	142
6mer-1-375 (RRVFYR)	154

Same assay, conditions: 6mer-2 Top sequence; SPR; peptides tested at 10 μM

Substance	Binding affinity [Ru]
6mer-2-43 (RVITKR)	146
6mer-2-13 (RQYTRK)	123
6mer-2-87 (RRLTKR)	142
6mer-2-103 (RVVTKK)	136
6mer-2-46 (KLYLKR)	153
6mer-2-26 (RWRRKK)	121

Same assay, conditions: SPR, Resonance Units; 5mer Bottom sequence (bottom combinations); peptides tested at 10 μM

Substance	Binding affinity [Ru]
5mer-1051 (RYAHR)	28
5mer-1103 (KKSHR)	18
5mer-728 (KPHIK)	19
5mer-632 (RFSHR)	33
5mer-733 (KTCDR)	23
5mer-750 (KEADK)	13
5mer-1058 (KIPWR)	25
5mer-1033 (REWDK)	28
5mer-774 (RTCDR)	25
5mer-651 (RFTVR)	11
5mer-684 (KCAER)	27
5mer-921 (KKKFK)	21
5mer-678 (KYMGR)	23
5mer-973 (RYWAR)	12
5mer-695 (KKPDR)	26
5mer-988 (RCKWR)	17
5mer-769 (KTEWK)	32
5mer-904 (KPDPK)	23

Same assay, conditions: SPR, Resonance Units; peptides tested at 10 μM; 6mer-1 Bottom sequence

Substance	Binding affinity [Ru]
6mer-1-1175 (RKTWEK)	23
6mer-1-1165 (RRATWR)	29
6mer-1-1080 (KKHNMR)	38
6mer-1-1139 (KKMENR)	36
6mer-1-1096 (RKPEPR)	23
6mer-1-1029 (RRCMAK)	40

Same assay, conditions: SPR, Resonance Units; peptides tested at 10 μM; 6mer-1 Bottom sequence (Table 11)

Substance	Binding affinity [Ru]
6mer-1-627 (RRTWWR)	29
6mer-1-621 (RRMAGK)	30
6mer-1-645 (RRTTIR)	33
6mer-1-696 (KKHCNR)	18
6mer-1-713 (KKATNK)	20
6mer-1-622 (KKCPNR)	18
6mer-1-728 (RRDNAR)	23

Same assay, conditions: SPR, Resonance Units; peptides tested at 10 μM; 6mer-2 Bottom sequence

Substance	Binding affinity [Ru]
6mer-2-669 (KNMWRK)	15
6mer-2-698 (KCEDKK)	27
6mer-2-775 (KMSMKK)	26
6mer-2-743 (KHTMKR)	18
6mer-2-873 (KNWGRR)	11
6mer-2-771 (KITARR)	26
6mer-2-650 (RFKARK)	18
6mer-2-772 (RHPAKK)	15
6mer-2-727 (RDMIKR)	11
6mer-2-758 (RFSFKK)	18
6mer-2-991 (KCHFRR)	30
6mer-2-718 (KYTFKR)	12
6mer-2-790 (RCAGRR)	23
6mer-2-867 (KYWEKK)	32
6mer-2-730 (RNTHKR)	26
6mer-2-754 (KADGRR)	12
6mer-2-733 (RTPARK)	29
6mer-2-947 (KTNWRK)	41
6mer-2-814 (RYMERK)	28
6mer-2-781 (KTMNRK)	28
6mer-2-844 (RDPKKK)	22
6mer-2-737 (KDSVRR)	19

Same assay, conditions: SPR, Resonance Units; peptides tested at 10 μM; 6mer-2 Top sequence

Substance	Binding affinity [Ru]
6mer-2-483 (RRYLKK)	121
6mer-2-558 (KSVCKK)	154
6mer-2-474 (RWQQRR)	128
6mer-2-477 (RSRTRR)	135
6mer-2-573 (KLYLRR)	121
6mer-2-414 (KWRQKK)	135
6mer-2-425 (KLQTKK)	145
6mer-2-476 (KGIRKK)	148
6mer-2-508 (RVFLKK)	121
6mer-2-490 (RRYQKK)	145
6mer-2-439 (KWFSKR)	153

Same assay, conditions: SPR, Resonance Units; peptides tested at 10 μM; 6mer-2 Top sequence (Table 12)

Substance	Binding affinity [Ru]
6mer-2-224 (RLFLKR)	148
6mer-2-343 (KQISKK)	146
6mer-2-373 (KLIYRK)	139
6mer-2-375 (RVVQKK)	131
6mer-2-234 (RSQTKR)	142
6mer-2-222 (RVVYRK)	127

Same assay, conditions: SPR, peptides at 10 μM; 6mer-2 Bottom sequence

Substance	Binding affinity [Ru]
6mer-2-1200 (RHHNRR)	30
6mer-2-1074 (RPMGRK)	33
6mer-2-1063 (RFNVRK)	24
6mer-2-1064 (RCMKRR)	39
6mer-2-1128 (KNCMRK)	36
6mer-2-1018 (RPTKKK)	24
6mer-2-1129 (RITGKR)	42
6mer-2-1006 (RATMRR)	30
6mer-2-1030 (RAPFKK)	28
6mer-2-1144 (RFEDRK)	39

Same assay, conditions: SPR, peptides tested at 10 μM; 5mer Top sequence

Substance	Binding affinity [Ru]
5mer-70 (RLLQR)	69
5mer-68 (RGFYK)	82
5mer-96 (RVLYR)	55
5mer-93 (KWVYR)	79
5mer-510 (RQLSK)	71
5mer-302 (RRILK)	70
5mer-381 (KGQRR)	87
5mer-494 (RGFCK)	54
5mer-437 (RVRLR)	50
5mer-167 (KQFRK)	64
5mer-322 (RRQSR)	84
5mer-469 (KSRRR)	69
5mer-27 (KGYLR)	67
5mer-481 (KSYCK)	78

Same assay, conditions: SPR, peptides tested at 10 μM; 5mer Top sequence (top combinations)

Substance	Binding affinity [Ru]
5mer-549 (KWITK)	78
5mer-217 (KLQRR)	72
5mer-535 (KSLLR)	70
5mer-245 (RQRSK)	62
5mer-291 (RWFTR)	72
5mer-269 (RLFLR)	85

Same assay, conditions: SPR, peptides tested at 10 μM; 6mer-1 Bottom sequence (Table 11)

Substance	Binding affinity [Ru]
6mer-1-799 (RRKKKR)	30
6mer-1-829 (RRIHKK)	25
6mer-1-809 (KKKSNR)	12
6mer-1-897 (RRPSIK)	24
6mer-1-954 (KKAKGR)	41
6mer-1-855 (RKCDVR)	15
6mer-1-837 (KRDHAK)	19
6mer-1-911 (KRCAAR)	28
6mer-1-982 (KRCPDR)	35

Same assay, conditions: SPR, peptides tested at 10 μM; 6mer-1 Top sequence

Substance	Binding affinity [Ru]
6mer-1-497 (KRRQLR)	133
6mer-1-412 (RKSILK)	139
6mer-1-474 (KRLFSK)	121
6mer-1-451 (RKVRLR)	153
6mer-1-560 (RRSFSK)	127
6mer-1-551 (KRGRLR)	142
6mer-1-525 (RRQLRR)	139
6mer-1-547 (RKVQQR)	148
6mer-1-580 (KKSLQK)	121
6mer-1-593 (RKVYRK)	148
6mer-1-415 (RRGVCR)	135
6mer-1-453 (KKWQQK)	154

Same assay, conditions: SPR, peptides tested at 10 μM; 6mer-1 Top sequence (top combinations)

Substance	Binding affinity [Ru]
6mer-1-23 (KRSVSR)	153
6mer-1-137 (RRLFRR)	121
6mer-1-116 (RKVRCK)	139
6mer-1-12 (KKQICK)	128
6mer-1-152 (KRVIRR)	154

Same assay, conditions: SPR; XRRGVRR-7mer and RRGVRRX-7mer

Substance	Binding affinity, values relative to the RRGVRR sequence
3649 (WRRGVRR) [compound 3649]	134
3652 (TRRGVRR) [compound 3652]	105

Same assay, conditions: SPR; peptides tested at 10 μM; 5mer Bottom sequence

Substance	Binding affinity [Ru]
5mer-1162 (KIKKK)	15
5mer-1184 (RDSMK)	14
5mer-1174 (KYSGK)	25
5mer-1113 (RHMER)	19
5mer-828 (RFCWR)	27
5mer-1155 (RYDMK)	25
5mer-845 (RYEDR)	15
